# From the nanobody polyreactivity screen of Harvey et al. (2022)
# Experiment: yeast display, Sf9 membrane polyspecificity reagent, FACS + sequencing; frameworks hold sequencing errors
# How it was run: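 Genes from sorted yeast were amplified by colony PCR, read by MiSeq 2 × 250 sequencing and filtered on CDR length. These cells carried a synthetic nanobody library in Saccharomyces cerevisiae BJ5465 and were sorted by FACS into low and high (top ~1%) gates on anti-HA and streptavidin fluorescence. Polyreactivity is labelled according to the gate of origin.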
row,Sequence,polyreactivity (PSR sort gate)
1,QVQLVESGGGLVQAGGSLRLSCAASGSNFAYYTMGWYRPAPGKERELVAAITSGGSTYYADSVKGRFTISRDNAKNTVYLQMNSLKPEDTAVYYCATRHSVGRYGMDSWGQGTQVTVSS,high polyreactivity
2,QVQLVESGGGLVQAGGSLRLSCAASVRIFSGYAMGWYRQAPGKERELVAAISQRGGSTTYADSVKGRFTISRDNAKNTVYLQMNSLKPEDTAVYYCAKRYTYPSGYDYWGQGTQVTVSS,low polyreactivity
3,QVQHVESGGGLVQAGRSLRLICAASGRTFSRYALGWSRQAPGKERELVASIRSGGSTNYADSVKGRFTISRDNAKNTVYLQMNSLKPEDSAVYYCAKRGRLRNYDYWGQGTQVTVSS,high polyreactivity
4,QVQLVESGGGLVQAGGSLRLSCAASGTFAVYTMGWYRQAPGKERELVAAISSGGSTYYADSVKGRFTISRDNAKNTVYLQMNSLKPEDTAVYYCAKVPGRYRADRYWDHYSHDYWGQGTQVTVSS,high polyreactivity
5,QVQLVESGGGLLQAGGILRLSCAASGFTFKYYVMGWYRQAPGKERELDAAITSSGSTYYADSVKGRFTISRDNAKNTVYLQINRLKPEDSAVYYCAAEGQSWQRWRYNYWGQGTQVTVSS,high polyreactivity
6,QVQIVESGGGLVQAGGSLRLSCAASGSTFLSNAMGWYRQAPGKERELVATISFSGATYADSVKGRFTIARDNAKNTVYLQMNSLKPEDTAVYYCNRATLNYSGKGDTAYDYWGQGTQVTVSS,low polyreactivity
7,QVQLVESGGGLVQAGGSLRLSCAASGSTFSWNTMGWYRQAPGKERELVAAINSGGSTYYADSVKGRFTISRDNAKNTVYLQMNSLKPEDTAVYYCAARTNYYGRFDYWGQGTQVTVSS,low polyreactivity
8,QVQLVESGGGLVQAGGSLRLSCAASGRIFVRYAMGWYRQAPGKEREFVAAINYSGGSTYADSVKGRFTISRDNAKNSVFLQMIRLKPEDTAVYYCAADYQGITSSDPYDYWGQGTQVTVSS,low polyreactivity
9,QVQLVESGGGLVQAGGSLRLTCAASGSTFIRYTMVWYRQAPGKEREFVATITWSTGTTYYADSVKGRFTISRDNAKYSVYLQMNSLKPEDTAVYYCAAVYYYYTGITYDYWGQGTQVTVSS,high polyreactivity
10,QVQLVESGGGILQARGSRPLICAASGSNLSYNAMGWYRQAPGKEREFVATITGTGGSTRYADSVKGRFTFSRDNAKNTVYLQMNSLNPEDTAVYYCATAAWWYYRIYHEFGFLGQGTQVTVSS,high polyreactivity
11,QVRLVESGGGLVQAGCSRRLSCAATGRFFAYNSMGWYRQAPGKEMEWVAAISSTGGSTYYADSVKGRFTISRDNAKNTVYLQMNSLKTEDTAVYYCAAAWCYRYSSYDYWGQGTQVTVSS,low polyreactivity
12,QVQLVESGGGLVQAGGSLRLSCAASGRTFWRNTMGWYRQAPGKQREFVAASTFSGVRTYYADSVKGRFTISRDNAKNTVYLQMNSLKPEDTAVYYCAKSRQYIGGFDYWGQGTQVTVSS,high polyreactivity
13,QVQLVESRGGLVQAGGSLRLSCAASGSIFWLYAMGLYRQAPGKERELVAAIDSGDSTKYADSVKGRFTISRDNAKNTVYLQMNSLKREDTAVYYCNASRRYHVLAPYDYWGQGTQVTVSS,low polyreactivity
14,QVQLVESGGGLVQAGGSLRLSCAASGFIFVVYAMGWYRQAPGKERELVAAITNGGITYYADSVKGRFTISRDNAKNTVYLQMHSLKPEDTADYYCNAQYTDYDGYVGYYYWGEGTQVTVSS,low polyreactivity
15,QVQLVESGGGLVQAGGSLRLSCAASGFTFVGNAMGSYRQAPGKERELVAAITWSGGRTYYADSVKGRFTISRDNAKNTVYLQMNSLKPEDTAVYYCNKLVERWYGYWGQGTQVTVSS,high polyreactivity
16,QVQLVESGGGLVQAGGSLRLSCAASGRTLSANAMGWYRQAPGKERELVATISTRGGRTYYADSVKGRFTISRDNAKNTVYLQMNSLKPEDTAVYYCAVTIRAKYTLKEDYWGQGTQVNVSS,low polyreactivity
17,QVQLVESGGGLVQAGGSLRLSCAASGSIFSAYAMGWYRQAPGKERELVAAISSRGSRTYYAYSVKGRFTISRDYAKNSVYLQMNSLKPEDTAVYYCAADPFSSYYKMDYWGQGTQVTVSS,high polyreactivity
18,QVQLVESGGGLVQAGGSLRLSCAASGSIIGTNVMGWYRQPPGKERELVPSISYRDGTTYYADSVKGRFTISRDNAKNTVYLQMNSLKPEDTAVYYFAVANYYSYYWGQGTQVTVSS,low polyreactivity
19,QVHLVESGGGLVQAGGSLRLSCAASGSTFTYYAMGWYRQAPGKERELVAAITSGGSTNYADSVKGRFTISRDNAKNTVYLQMNSLKPEDTAVYYCAGDGQNFQFYVVSEEYDYWGQGTQVTVSS,low polyreactivity
20,QVQLVESGGGLVQAGGSLRLSCAASGLIFVPYAMGWYRQAPGKERELVAAINSGATTYYADSVKGRFTISRDNAKNTVYLQMNSLKPEDTAVYYCNAEYPVYVYWFDYWGQGTQVTVSS,high polyreactivity
21,QVQLVESGGGLVQAGGSLRLSCAASGSIFVGNAMGWYRPAPGKERELVAAITGRGSRTYYADSVKGRFTLSRDNAKNTVYLQMNSLKPEDTAVYYCAARYTNYGGFYWGQGTQVTVSS,high polyreactivity
22,QVQLVESGGGLFQEGGSLRLSCAASGRIFYGYGMGWYRQAPGKERELVAAITWSGSRTYYADSVKGRFTISRDNAKNTVYVQMNSLKPEDTAVYYCAARIPSDGYYYWGQGTQVTVSS,high polyreactivity

row,Sequence,polyreactivity (PSR sort gate)
1,QVQLVESGGGLVQAGGSLRLSCAASGRTFGVNTMGWYRQAPGKERELVASISTSGGSTYADSVKGRFTISRDNAKNTVYLQMISLKPEDTAVYYCARTYYWYLRVDYWGQGTQVTVSS,low polyreactivity
2,QVQLVESGGGLVQAGGSLRLSCAASGFIYGKNAMGWYRQAPGKERELVAAISQRGGSTYYADSVKGRFTISRDTAKNTVYLQMNSLKPEDTAVYYCAADGRRVVARYDYWGQVTQVTVSS,high polyreactivity
3,QVQLVESGGGLVQAGGSLRLSCADSGIIFAYYDMGWYRQAPGKERELVASISSTGGSTYYADSVKGRFTISSDNAKNTVYLQMNSLKPEDTAVYYCAVDGLPPKDALHLYYYWGQGTQVTVSS,low polyreactivity
4,QVQLVESGGGLVQAGGSLRLSCAASGRIFYEYAMGWYRQAPGKERELVAISTSGGNTYYADSVKGRFTISRDNAKNTVYLQMNSLKPEVTAVYYCAARLQYYPYYYWGQGTQVTVSS,high polyreactivity
5,QVQLVESGGGLVQAGGSLRLSCAASGSTFYRYALGWYRQAPGKERELVAAISRSGGNTFYADSVKGRFTISRDNAKNTVYLQMNRLKPEDTAVYYCAALRSWYAQTSGMDYWGQGTHVTVSS,high polyreactivity
6,QVQLQESGGGLVQAGGSPRLSCAASDNIFPDSVMCWYRQAPGKERELVATIGFGATTNSADSVKGRFTISRDNAKNTVYLQMNSLKPEDTAVYSCAADPLNYEYFCYWGQGTQVTVSS,low polyreactivity
7,QVQLVESGGGLVQAGGSLRLSCAASGSTLIFYAMGWYRQAPGKERELVAAIRFSGGTTYYADSVKGRFTISRDNAKNTVYLQMNSLKPEDTAVYDCAADPRPAYGYYYLYADFDYWGLGTQVTVSS,low polyreactivity
8,QVQLLESGGGLVQAGGSLRLSCAASGSIFLLNAMGWYRQAPGKERELVASISRGGVRTNYADSEKGRFTISRDNAKNTVYLQMISLKPEDTAVYYCAAGTRPFGYRRDYWGQGTQVTVSS,high polyreactivity
9,QVQLVESGGGLVQAGGSLRLSCAASGYIFSDNTMGWYRPAPGKERELVAVITSGTSTSYADSVKGRFTISRDNAKNTVYLQMNSLKPEDTAVYDCARESVTYFWYYTPEVDYWGQGTQVTVSS,low polyreactivity
10,QVQLVESGGGLVQAGGSLRLSCAASGSIFLVNALGWYRQAPGKERELVAAISWSGGSTYYAESVKGRFTISRDNAKNTVYLQMKSLKPEDTAVYYCAADWFAANYYVNTVSALDYWGLGTQVTVSS,low polyreactivity
11,QVQLVESGGGLVQAGGSLRLSCAASGSIFIVNDMGWYRQAPGKERELVAAISGRGGNTNYADSVKVRFTISRDNAKNTVYLQMNSLKPEDTSVYFCAARHTRDYDYWGQGTQVTVSS,high polyreactivity
12,QVQLVESGGGLVQAGGSLRLSCAASGSIFRIYAMGWYRQAPGQESELVAAINAGGGRTYYADSVKGRFTISRDNAKNTVYLQMNSLKPEDTAVYYCAARHTEYRQESLYYWGQGTQVTVSS,low polyreactivity
13,QVQLEESGGGLVQAGGSLRLSCAASGFTFNPYTMGWYRQAPGKERELVAAITSSGGSTYYADSVKGRFTISRDNAKNTVYLQMNSLKPEDTAVYYCAKLRTASIYDYWGQGTQVTVSS,low polyreactivity
14,QVQLVESGGGLVQAGGSIRLTCAASGRIYEIYTMGWYRQATGKETEFVAGITWSGGSTYYADSVKGRFTISRDNAKNTFYLQMNSLKPEDTAVYYCATDEVYWTGYAPSLFDYWGQGTQVTVSS,low polyreactivity
15,QVQLVESGGGLVQAGGSLRLSCAASGFIFRDNAMGWYRQAPGKERELVAAISERGGRTYYADSVKGRFTISRDNAKNTVYLQMNSLKPEDTAVYYCAAEDIANFYYWGQGTQVTVSS,high polyreactivity
16,QFQLVESGGGLVQAGGSLRLSCAASGITFGWYAMGWYRKATGKETELVASISSSGSTNYADSVKGRFTISRDNAKNTVYLQMNSLKPEDTAVYYCNKDYLLRQYYIYVIEGDYWGQGTLVTVSS,low polyreactivity
17,QVQLVESGGGLVQAGGSLRLSCAASGLTLTWNAMGWYRQAPGKERELVAAITGSGGRTNYADSVKGRFTISRDNAKNTVYLQMNSLKPEDTAVYYCASFRWYHWGTRYDYWGQGTQVTVSS,high polyreactivity
18,QVQLVESGGGLVQAGGSLRLSSAASGYIFDWNAMGWYRQAPGKERELVAAISSGGRTNYADSVKGRFTISRDNAKNTVYLQMNSLKPEDTAVYYCAAVYTDPYVEYDYWGQGTQVTVSS,low polyreactivity
19,QVQLVESGGGLDQAGGSLRLSCAASGFIFPAYAMGWYRQAPGKERELVAAITTRGGSTYYADSVKGRFTISRDNAKNTVYLQMNSLKPEDTAVYYCAAYAVWYRYYYWGQGTQVTVSS,low polyreactivity
20,QVQLVESGGGLVQAGGSLRLSCAASGSIFDTYAMGWYRQAPGKERELVATITRSGARTYYADSVKGRFTISRDNAKITVYLQMNSLKTEDTAVYYCAALYYDDFGYEYDYWGQGTQVTVSS,low polyreactivity
21,QVQLVESGGGLVQAGGSLRLSCAASGRIFGRYAMGWYRQAPGKERELVAGISARGGSTYYADSVKGRFTISRDNAKNTVYLQMNSLKPADTAVYYCAAAGYRGGGYWGQRTQVTVSS,high polyreactivity
